Biological target: Mouse BACE1 (beta amyloid precursor protein cleavage enzyme 1), native protein in mouse brain lysate or neurons (mouse) (UniProt P56818)
Experiment: cell-based or functional assay

Chain of Mouse BACE1 (beta amyloid precursor protein cleavage enzyme 1), native protein in mouse brain lysate or neurons (mouse) (P56818 46-501 limits assumed): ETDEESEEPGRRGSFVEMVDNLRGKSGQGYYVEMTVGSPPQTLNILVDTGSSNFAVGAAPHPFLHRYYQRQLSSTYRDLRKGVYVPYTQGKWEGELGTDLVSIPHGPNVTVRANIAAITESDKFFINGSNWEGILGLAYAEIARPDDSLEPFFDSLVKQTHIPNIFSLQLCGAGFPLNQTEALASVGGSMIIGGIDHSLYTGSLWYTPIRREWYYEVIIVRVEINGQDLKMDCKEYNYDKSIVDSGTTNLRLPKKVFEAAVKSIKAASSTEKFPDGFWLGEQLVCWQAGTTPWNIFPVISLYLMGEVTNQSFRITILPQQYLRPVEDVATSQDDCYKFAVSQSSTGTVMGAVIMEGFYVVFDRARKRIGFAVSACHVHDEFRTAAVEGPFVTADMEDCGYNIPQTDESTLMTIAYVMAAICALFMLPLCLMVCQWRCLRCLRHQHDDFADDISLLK

BACE1 internalized within 12 min at 37 C as percent of surface expression, NPTX1-/- neurons (surface biotinylation assay): 95% | BACE1 internalized within 12 min at 37 C as percent of surface expression, WT neurons (surface biotinylation assay): 37.5% | hAβ40 in media of hAPP/NPTX1-/- neurons compared to hAPP neurons (ELISA): 2 fold
Substance: Mouse NPTX1 (Neuronal Pentraxin 1), native protein in mouse brain lysate or neurons (from UniProt Q62443 23-432)

From US20170292963A1
